Ends that are not written are not given here. A value given as a limit tells only on which side of the number the result lay.

To fix the notation:
T1: His-tagged P3028 (PGE73) (human, also: His tag, length and end not given here)
T1 construct: the tag is put first here only for want of a statement; also called His-tag-P3028; not shown: His tag
T1 peptide: VFDEFKPLVEEPQNLIK

B1: SEQ ID NO 9 (peptide)
peptide: KKLDTFMVKLSLFTER
notes: on PEPSCAN card; also called P28R with M in position 7
B2: SEQ ID NO 15 (peptide)
peptide: KKLDTFFVKLQLFTER
notes: on PEPSCAN card; also called P28R with Q in position 11
B3: SEQ ID NO 25 (peptide)
peptide: KKLDTFFVKLSLNTER
notes: on PEPSCAN card; also called P28R with N in position 13
B4: SEQ ID NO 10 (peptide)
peptide: KKLDTFSVKLSLFTER
notes: on PEPSCAN card; also called P28R with S in position 7
B5: SEQ ID NO 24 (peptide)
peptide: KKLDTFFVKLSLHTER
notes: on PEPSCAN card; also called P28R with H in position 13
B6: SEQ ID NO 23 (peptide)
peptide: KKLDTFFVKLSLQTER
notes: on PEPSCAN card; also called P28R with Q in position 13
B7: SEQ ID NO 16 (peptide)
peptide: KKLDTFFVKLMLFTER
notes: on PEPSCAN card; also called P28R with M in position 11
B8: SEQ ID NO 22 (peptide)
peptide: KKLDTFFVKLSLMTER
notes: on PEPSCAN card; also called P28R with M in position 13

The first assay addresses Artificial Cell Surface (ACS). Put plainly: ACS column adsorption of trypsin-digested dHSA, MALDI-TOF MS.
With KVPQVSTPTLVEVSR [… (trypsin-generated albumin fragment, SEQ ID NO: 195)], the Percent Absorbed worked out at 64%.
As to QEPERNECFLQHK (not fully specified) [… (trypsin-generated albumin fragment, SEQ ID NO: 211)], the Percent Absorbed is 18%.
On the same count and under the same terms, in the case of LCTVATLR [LCTVATLR (trypsin-generated albumin fragment, SEQ ID NO: 202)] it was 35%.
Same read-out and setting: the figure for DDNPNLPR [DDNPNLPR (trypsin-generated albumin fragment, SEQ ID NO: 216)] is 1%; for SLHTLFGDK [… (trypsin-generated albumin fragment, SEQ ID NO: 200)] it is 36%.
The same measure, in the same setting: in the case of CCAAADPHECYAK [… (trypsin-generated albumin fragment, SEQ ID NO: 204)] it was 32%.
Molecule VPQVSTPTLVEVSR [… (trypsin-generated albumin fragment, SEQ ID NO: 197)] registered a Percent Absorbed of 59%.
On the same count and under the same terms, the figure for FKDLGEENFK [… (trypsin-generated albumin fragment, SEQ ID NO: 213)] is 8%.
On the same count and under the same terms, the figure for LKECCEKPLLEK [… (trypsin-generated albumin fragment, SEQ ID NO: 201)] is 36%; for YLYEIAR [YLYEIAR (trypsin-generated albumin fragment, SEQ ID NO: 203)] it is 34%; for VHTECCHGDLLECADDR [… (trypsin-generated albumin fragment, SEQ ID NO: 212)] it is 13%.
NECFLQHK [NECFLQHK (trypsin-generated albumin fragment, SEQ ID NO: 209)] gave a Percent Absorbed of 22%.
The molecule QEPERNECFLQHK (not fully specified) [… (trypsin-generated albumin fragment, SEQ ID NO: 207)] yielded a Percent Absorbed of 25%.
As for LDELRDEGK [… (trypsin-generated albumin fragment, SEQ ID NO: 215)], the Percent Absorbed is 2%.
Regarding AAFTECCQAADK [… (trypsin-generated albumin fragment, SEQ ID NO: 205)], the Percent Absorbed stood at 29%.
In turn, KYLYEIAR [KYLYEIAR (trypsin-generated albumin fragment, SEQ ID NO: 194)] returned a Percent Absorbed of 71%.
For the molecule FQNALLVR [FQNALLVR (trypsin-generated albumin fragment, SEQ ID NO: 199)], the Percent Absorbed is 41%.
Molecule RPCFSALEVDETYVPK [… (trypsin-generated albumin fragment, SEQ ID NO: 198)] showed a Percent Absorbed of 42%.
Still for that read-out and setting: the figure for CCTESLVNR [… (trypsin-generated albumin fragment, SEQ ID NO: 206)] is 26%.
The same measure, in the same setting: the figure for YICENQDSISSK [… (trypsin-generated albumin fragment, SEQ ID NO: 214)] is 3%; for AVMDDFAAFVEK [… (trypsin-generated albumin fragment, SEQ ID NO: 208)] it is 23%.
On the same count and under the same terms, in the case of VFDEFKPLVEEPQNLIK [… (trypsin-generated albumin fragment, SEQ ID NO: 196)] it was 60%.

Another assay concerns the target Artificial Cell Surface (ACS). As to the kind of experiment: ACS column adsorption of Asp-N-digested dHSA, MALDI-TOF MS.
Turning to DSISSKLKECCEKPLLEKSHCIAEVEN [… (Asp-N-generated albumin fragment, SEQ ID NO: 221)], the Percent Absorbed worked out at 65%.
The same measure, in the same setting: the figure for VFLGMFLYEYARRHPDYSVVLLLRLAKTYETTLEKCCAAA [… LEKCCAAA (Asp-N-generated albumin fragment, SEQ ID NO: 227)] is 100%; for RVTKCCTESLVNRRPCFSALEVDETYVPKEFNAETFTFHA [… (Asp-N-generated albumin fragment, SEQ ID NO: 229)] it is 100%; for LGEENFKALVLIAFAQYLQQCPFEDHVKLVNEVTEFAKTCVA [… (Asp-N-generated albumin fragment, SEQ ID NO: 228)] it is 100%.
On the same count and under the same terms, the figure for DKLCTVATLRETYGEM [… (Asp-N-generated albumin fragment, SEQ ID NO: 222)] is 65%.
Still for that read-out and setting: in the case of DDKETCFAEEGKKLVAASQAALGL [… (Asp-N-generated albumin fragment, SEQ ID NO: 218)] it was 100%; in that of LAKYICENQDSISSKLKECCEKPLLEKHCIAEVEN [… (Asp-N-generated albumin fragment, SEQ ID NO: 226)], 100%; in that of ICTLSEKERQIKKQTALVELVKHKPKATKEQLKAVM [… (Asp-N-generated albumin fragment, SEQ ID NO: 225)], 100%.
Molecule KLCTVATLRETYGEMADCCAKQEPERNECFLQHK [… (Asp-N-generated albumin fragment, SEQ ID NO: 224)] displayed a Percent Absorbed of 100%.
The same measure, in the same setting: the figure for YSVVLLLRLAKTYETTLEKCCAAADPHECYAKVF [… (Asp-N-generated albumin fragment, SEQ ID NO: 223)] is 100%; for DRVTKCCTESLVNRRPCFSALEV [… (Asp-N-generated albumin fragment, SEQ ID NO: 219)] it is 87%.
The same measure, in the same setting: the figure for YLSVVLNQLCVLHEKTPVSDRVTKCCCTESLVNRRPFSALEV [… (Asp-N-generated albumin fragment, SEQ ID NO: 230)] is 37%.
On the same count and under the same terms, in the case of DHVKLVNEVTEFAKTCVA [… (Asp-N-generated albumin fragment, SEQ ID NO: 217)] it was 100%; in that of DETYVPKEFNAETFTHA [… (Asp-N-generated albumin fragment, SEQ ID NO: 220)], 86%.

The target of the next assay is T1, His-tagged P3028 (PGE73). Put plainly: PEPSCAN ELISA: peptide on chip, His-tagged P3028 in solution, anti-His mAb and rampo conjugate. A general note: In an ELISA, binding on a coated surface is turned into a signal by an enzyme label.
Experimental: After washing, the peroxidase substrate 2,2′-azine-di-3-ethylbenzthiazoline sulfonate (ABTS) and 2 μL of 3% H2O2 were added. The binding capacity of the mAb was measured as a color development at 405 nm (optical density, OD405). The color development was quantified with a charge-coupled device (CCD)—camera and an image processing system.
The OD405-values obtained by a CCD-camera was considered as raw data values (“rampo values,” “rampo units,” or “rampo scores”). […] First the CCD-camera made a picture of the card before peroxidase coloring and then again a picture after the peroxidase coloring. […] These values were copied into an excel file and labeled as a raw data file. […] Sometimes a well can contain an air-bubble resulting in a false-positive value. If manual inspection of the cards detect an air-bubble the value are set to 0 for well.
With B1, the rampo value was more than 700 rampo units.
The same measure, in the same setting: the figure for B2 is more than 700 rampo units; for B3 it is more than 800 rampo units; for B4 it is more than 700 rampo units.
Take B5: the rampo value is more than 800 rampo units.
B6 registered a rampo value of more than 800 rampo units.
Molecule B7 yielded a rampo value of more than 700 rampo units.
For the molecule B8, the rampo value was more than 800 rampo units.

For a further assay, the target named is Artificial Cell Surface (ACS): biotinylated cell surface proteins of human PBMCs bound to a streptavidin column (human). As to the kind of experiment: adsorption on ACS column, MALDI-TOF ms.
Molecule VFLGMFLYEYARRHPDYSVVLLLRLAKTYETTLEKCCAAA [Asp-N-generated albumin fragment, SEQ ID NO 227] came in with a Percent Absorbed of 100%.
With RVTKCCTESLVNRRPCFSALEVDETYVPKEFNAETFTFHA [Asp-N-generated albumin fragment, SEQ ID NO 229], the Percent Absorbed is 100%.
Same read-out and setting: in the case of LGEENFKALVLIAFAQYLQQCPFEDHVKLVNEVTEFAKTCVA [Asp-N-generated albumin fragment, SEQ ID NO 228] it was 100%; in that of LAKYICENQDSISSKLKECCEKPLLEKHCIAEVEN [Asp-N-generated albumin fragment, SEQ ID NO 226], 100%; in that of ICTLSEKERQIKKQTALVELVKHKPKATKEQLKAVM [Asp-N-generated albumin fragment, SEQ ID NO 225], 100%.
Still for that read-out and setting: in the case of KLCTVATLRETYGEMADCCAKQEPERNECFLQHK [Asp-N-generated albumin fragment, SEQ ID NO 224] it was 100%.
Still for that read-out and setting: in the case of YSVVLLLRLAKTYETTLEKCCAAADPHECYAKVF [Asp-N-generated albumin fragment, SEQ ID NO 223] it was 100%; in that of YLSVVLNQLCVLHEKTPVSDRVTKCCCTESLVNRRPFSALEV [Asp-N-generated albumin fragment, SEQ ID NO 230], 37%.

(Values after patent US20180177842A1 (CANIMGUIDE THERAPEUTICS, published 2018).)
